# Data: patent publication US20250032566A1 (YEDA RESEARCH AND DEVELOPMENT, published 2025)
# T1: ThsB (Thoeris defense system TIR-domain protein) (UniProt J8G8J6 1-192)
# T1 construct: Expressed from pBAD as a ThsA-ThsB operon in E. coli MG1655; also called Thoeris (ThsA/B)
# T1 sequence: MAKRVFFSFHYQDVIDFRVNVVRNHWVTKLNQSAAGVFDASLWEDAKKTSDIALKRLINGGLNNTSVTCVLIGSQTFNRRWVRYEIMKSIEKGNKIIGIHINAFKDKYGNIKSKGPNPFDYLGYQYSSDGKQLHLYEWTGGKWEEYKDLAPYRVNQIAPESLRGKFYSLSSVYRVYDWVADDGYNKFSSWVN
# T2: ThsA (Thoeris defense system protein) (UniProt J8G6Z1 1-476)
# T2 construct: Expressed from pBAD as a ThsA-ThsB operon in E. coli MG1655; also called Thoeris (ThsA/B)
# T2 sequence: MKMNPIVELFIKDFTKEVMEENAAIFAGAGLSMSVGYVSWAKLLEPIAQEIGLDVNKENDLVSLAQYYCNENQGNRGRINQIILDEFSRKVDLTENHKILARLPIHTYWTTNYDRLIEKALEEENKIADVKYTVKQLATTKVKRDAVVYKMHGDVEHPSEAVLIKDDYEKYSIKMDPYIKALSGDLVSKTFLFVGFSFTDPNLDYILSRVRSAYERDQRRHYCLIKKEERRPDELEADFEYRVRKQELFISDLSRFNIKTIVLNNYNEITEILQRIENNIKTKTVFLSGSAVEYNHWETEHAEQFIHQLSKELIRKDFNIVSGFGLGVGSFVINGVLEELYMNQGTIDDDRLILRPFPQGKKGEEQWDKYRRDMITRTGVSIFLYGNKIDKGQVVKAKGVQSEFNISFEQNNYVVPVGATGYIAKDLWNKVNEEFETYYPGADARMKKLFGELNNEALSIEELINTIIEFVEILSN
# B1: TAD1 (Thoeris Anti Defense 1) from phage SBSphiJ7 with a C-terminal His-tag (other)
# chain: MRELKHELLPTRHTQVFHEDKDKMEFNAPHHFVVVPAGSPLVDQQIHYGRGGNSKKVTVKDFAGKLATVNFQLGPVTEHGANGVMNEDLIAMVITRLQYFQNSEFNCRENAMAITKLEEALMWLNKRTAEREQRGVEGTHEK
# notes: Co-expressed with ThsA and ThsB in E. coli MG1655 and pulled down on Ni-NTA magnetic beads; also called TAD1-His; His-TAD1; not shown: C-terminal His-tag
# Experiments:
# [1] = target: T1, ThsB (Thoeris defense system TIR-domain …); assay: His-tag pulldown on Ni-NTA magnetic beads from E. coli lysate co-expressing TAD1-His, ThsA and ThsB; SDS-PAGE
# [2] = target: T2, ThsA (Thoeris defense system protein); assay: as above
binder,measurement,setting,value
B1,binding result,[1],no binding
same,binding result,[2],no binding
